Test results as given in US20210107983A1 (Boehringer Ingelheim, published 2021).

T1: human B7H6 on HCT-15 cells (human, UniProt Q68D85 25-454)
T1 sequence (looked up): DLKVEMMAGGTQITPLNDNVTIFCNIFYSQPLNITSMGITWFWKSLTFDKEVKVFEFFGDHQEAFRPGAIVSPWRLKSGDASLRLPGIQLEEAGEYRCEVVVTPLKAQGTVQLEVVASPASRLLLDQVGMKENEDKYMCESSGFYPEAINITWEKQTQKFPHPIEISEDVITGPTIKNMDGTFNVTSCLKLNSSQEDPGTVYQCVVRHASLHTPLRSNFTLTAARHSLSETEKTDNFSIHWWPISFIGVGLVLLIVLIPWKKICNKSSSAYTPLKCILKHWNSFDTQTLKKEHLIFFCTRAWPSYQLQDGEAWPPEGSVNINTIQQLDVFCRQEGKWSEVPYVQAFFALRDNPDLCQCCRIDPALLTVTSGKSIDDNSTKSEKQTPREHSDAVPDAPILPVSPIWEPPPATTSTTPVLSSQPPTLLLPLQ


What was measured:
[1] = target: T2, Fc-His-tagged human Ala-mutated B7H6 ECD (human); assay: ELISA, plate coated with Fc-His-tagged human Ala-mutated B7H6 ECD, anti-human IgG F(ab')2-peroxidase, TMB
T2 construct: also called huB7H6-Ala-ECD
Procedure: To assess binding of B7H6/CD3 binding proteins to recombinant human Fc-His-tagged B7H6 ECD and human Fc-His-tagged Ala-mutated B7H6 extracellular proteins as described in Example 3, MediSorp™ plates (Nunc, 467320) were coated with […] recombinant proteins overnight at 4° C. The next day, plates were blocked with 0.5% bovine serum albumin (BSA) in phosphate buffered saline (PBS) for 1 hour at room temperature (RT). Subsequently plates were washed with […] containing 0.05% TWEEN®20 viscous liquid and B7H6/CD3 binding proteins were incubated at concentrations ranging from 0.00001 to 10 μg/ml. After an additional washing step, bound B7H6/CD3 binding proteins were detected by a peroxidase conjugated goat anti-human IgG F(ab′)₂-specific secondary antibody (Jackson Immunoresearch) and visualized by TMB substrate solution (Bender Med Systems).

[2] = target: T1, human B7H6 on HCT-15 cells; assay: cell-based or functional assay
[3] = target: T3, Fc-His-tagged human B7H6 ECD (human); assay: ELISA, plate coated with Fc-His-tagged human B7H6 ECD, anti-human IgG F(ab')2-peroxidase, TMB
T3 construct: also called huB7H6-ECD-Fc-His; recombinant human B7H6 ECD

[4] = target: T1, human B7H6 on HCT-15 cells; assay: flow cytometry on HCT-15 cells, PE anti-human secondary antibody
Procedure: Binding of B7H6/CD3 binding proteins to HCT-15, a human (colo-rectal cancer) CRC cell line was tested by flow cytometry. In a previous experiment, it has been confirmed that HCT-15 cells expresses B7-H6 on the RNA levels as well as the protein level with approximately 8,000 B7-H6 receptors on the cell surface (data not shown). B7H6/CD3 binding proteins were produced, as described in Example 2. HCT-15 cells were stained with increasing concentrations of two-step purified B7H6/CD3 binding proteins in FACS buffer (PBS/0.5% BSA/0.05% sodium azide). Bound molecules were detected with PE-conjugated anti-human secondary antibody (Sigma-Aldrich, #P8047).

Binder	EC50 (read off the curve) [1] [µg/mL]	EC50 [nM], 72 hour cytotoxicity assay, non-stimulated T-cells (Donor #1) as effector cells, HCT-15 cells as target cells [2] [nM]	EC50 (read off the curve) [3] [µg/mL]	binding result [1]	EC50 (read off the curve) [4] [nM]
B7H6#4/CD3#1 (bispecific antibody, human IgG1, kappa, lambda, L234A L235A, scFab-Fc heterodimer, one B7H6 chain and one CD3 chain) chain 1: DIVMTQSQKFMSTSVGDRVSVTCKASQNVGKYVAWYQQKPGQSPKALIYSASNRYDGVPDRFTGSGSGTDFTLTITNVQSEDLTEYFCQQYISYPLTFGAGTKLELKRTVAAPSVFIFPPSDEQLKSGTASVVCLLNNFYPREAKVQWKVDNALQSGNSQESVTEQDSKDSTYSLSSTLTLSKADYEKHKVYACEVTHQGLSSPVTKSFNRGECGGGGSEGKSSGSGSESKSTEGKSSGSGSESKSTGGGGSQVQLQQPGSVLVRPGASVRLSCKASGYTFTNYWMNWMKQRPGQGLEWIGGIYLNGDSTDYNEKFKGKATLTVDTSSSTTYMDLSSLTYEDSAVYYCTTRGDYFGDFWGQGTTLTVSSASTKGPSVFPLAPSSKSTSGGTAALGCLVKDYFPEPVTVSWNSGALTSGVHTFPAVLQSSGLYSLSSVVTVPSSSLGTQTYICNVNHKPSNTKVDKRVEPKSCDKTHTCPPCPAPEAAGGPSVFLFPPKPKDTLMISRTPEVTCVVVDVSHEDPEVKFNWYVDGVEVHNAKTKPREEQYNSTYRVVSVLTVLHQDWLNGKEYKCKVSNKALPAPIEKTISKAKGQPREPQVYTLPPSREEMTKNQVSLWCLVKGFYPSDIAVEWESNGQPENNYKTTPPVLDSDGSFFLYSKLTVDKSRWQQGNVFSCSVMHEALHNHYTQKSLSLSPG chain 2: EAVVTQEPSLTVSPGGTVTLTCRSSTGAVTTSNYANWVQEKPGQLPRGLIGGTNKRAPWVPARFSGSLLGGKAALTLSGAQPEDEAEYFCALWYSNLWVFGGGTKLTVLGQPKAAPSVTLFPPSSEELQANKATLVCLISDFYPGAVKVAWKADGSPVNTGVETTTPSKQSNNKYAASSYLSLTPEQWKSHRSYSCQVTHEGSTVEKTVAPAECSGGGGSEGKSSGSGSESKSTEGKSSGSGSESKSTGGGGSEVQLVESGGGLVQPGGSLKLSCAASGFTFNTYAMNWVRQAPGKGLEWVARIRSKYNNYATYYADSVKDRFTISRDDSKNTAYLQMNNLKTEDTAVYYCVRHGNFGNSYVSWFAYWGQGTLVTVSAASTKGPSVFPLAPSSKSTSGGTAALGCLVKDYFPEPVTVSWNSGALTSGVHTFPAVLQSSGLYSLSSVVTVPSSSLGTQTYICNVNHKPSNTKVDKRVEPKSCDKTHTCPPCPAPEAAGGPSVFLFPPKPKDTLMISRTPEVTCVVVDVSHEDPEVKFNWYVDGVEVHNAKTKPREEQYNSTYRVVSVLTVLHQDWLNGKEYKCKVSNKALPAPIEKTISKAKGQPREPQVYTLPPSREEMTKNQVSLSCAVKGFYPSDIAVEWESNGQPENNYKTTPPVLDSDGSFFLVSKLTVDKSRWQQGNVFSCSVMHEALHNRFTQKSLSLSPG	~0.2	0.23	~0.05	–	–
B7H6#6/CD3#1 (bispecific antibody, human IgG1, kappa, lambda, L234A L235A, scFab-Fc heterodimer, one B7H6 chain and one CD3 chain) chain 1: DIVMTQSPDSLPVSAGDRVTITCKASQSVSNDVVWYQQKPGQSPKLLMYSTSNRYIGVPDRFTGSGYGTDFTFTISTVQAEDLAVYFCQQDYSSPYTFGGGTKLEIKRTVAAPSVFIFPPSDEQLKSGTASVVCLLNNFYPREAKVQWKVDNALQSGNSQESVTEQDSKDSTYSLSSTLTLSKADYEKHKVYACEVTHQGLSSPVTKSFNRGECGGGGSEGKSSGSGSESKSTEGKSSGSGSESKSTGGGGSEVQLQQSGPELLKPGASVKISCKTSGYTFTDYTMHWVKQSHGKSLEWIGGINPNYDNTGYSEKFKDKATLTVDKSSSTAYMELRSLTSEDSAVYYCTRSGSRRSFYFDYWGQGTTLTVSSASTKGPSVFPLAPSSKSTSGGTAALGCLVKDYFPEPVTVSWNSGALTSGVHTFPAVLQSSGLYSLSSVVTVPSSSLGTQTYICNVNHKPSNTKVDKRVEPKSCDKTHTCPPCPAPEAAGGPSVFLFPPKPKDTLMISRTPEVTCVVVDVSHEDPEVKFNWYVDGVEVHNAKTKPREEQYNSTYRVVSVLTVLHQDWLNGKEYKCKVSNKALPAPIEKTISKAKGQPREPQVYTLPPSREEMTKNQVSLWCLVKGFYPSDIAVEWESNGQPENNYKTTPPVLDSDGSFFLYSKLTVDKSRWQQGNVFSCSVMHEALHNHYTQKSLSLSPG chain 2: EAVVTQEPSLTVSPGGTVTLTCRSSTGAVTTSNYANWVQEKPGQLPRGLIGGTNKRAPWVPARFSGSLLGGKAALTLSGAQPEDEAEYFCALWYSNLWVFGGGTKLTVLGQPKAAPSVTLFPPSSEELQANKATLVCLISDFYPGAVKVAWKADGSPVNTGVETTTPSKQSNNKYAASSYLSLTPEQWKSHRSYSCQVTHEGSTVEKTVAPAECSGGGGSEGKSSGSGSESKSTEGKSSGSGSESKSTGGGGSEVQLVESGGGLVQPGGSLKLSCAASGFTFNTYAMNWVRQAPGKGLEWVARIRSKYNNYATYYADSVKDRFTISRDDSKNTAYLQMNNLKTEDTAVYYCVRHGNFGNSYVSWFAYWGQGTLVTVSAASTKGPSVFPLAPSSKSTSGGTAALGCLVKDYFPEPVTVSWNSGALTSGVHTFPAVLQSSGLYSLSSVVTVPSSSLGTQTYICNVNHKPSNTKVDKRVEPKSCDKTHTCPPCPAPEAAGGPSVFLFPPKPKDTLMISRTPEVTCVVVDVSHEDPEVKFNWYVDGVEVHNAKTKPREEQYNSTYRVVSVLTVLHQDWLNGKEYKCKVSNKALPAPIEKTISKAKGQPREPQVYTLPPSREEMTKNQVSLSCAVKGFYPSDIAVEWESNGQPENNYKTTPPVLDSDGSFFLVSKLTVDKSRWQQGNVFSCSVMHEALHNRFTQKSLSLSPG	–	0.46	~0.05	no binding (tested: 10 µg/ml)	–
B7H6#8/CD3#1 (bispecific antibody, human IgG1, kappa, lambda, L234A L235A, scFab-Fc heterodimer, one B7H6 chain and one CD3 chain) chain 1: DIVMTQSPLSLPVTPGEPASISCRSSQSLLYNNRYNYLDWYLQKPGQSPEVLIYLGSNRASGVPDRFSGSGSGTDFTLKISRVEAEDFGVYYCMQTLQIPITFGQGTRLEIKRTVAAPSVFIFPPSDEQLKSGTASVVCLLNNFYPREAKVQWKVDNALQSGNSQESVTEQDSKDSTYSLSSTLTLSKADYEKHKVYACEVTHQGLSSPVTKSFNRGECGGGGSEGKSSGSGSESKSTEGKSSGSGSESKSTGGGGSQVQVVQSGAEVKKPGSSVKVSCKGSGDTLNSYGISWMRQAPGQGLEWMGGIIPIFDTTKYAQKFQGRVTITADKSTTTVYMELSSLRFEDTAVYYCARERGYRFSEDYYFYYGMDVWGQGTTVTVSSASTKGPSVFPLAPSSKSTSGGTAALGCLVKDYFPEPVTVSWNSGALTSGVHTFPAVLQSSGLYSLSSVVTVPSSSLGTQTYICNVNHKPSNTKVDKRVEPKSCDKTHTCPPCPAPEAAGGPSVFLFPPKPKDTLMISRTPEVTCVVVDVSHEDPEVKFNWYVDGVEVHNAKTKPREEQYNSTYRVVSVLTVLHQDWLNGKEYKCKVSNKALPAPIEKTISKAKGQPREPQVYTLPPSREEMTKNQVSLWCLVKGFYPSDIAVEWESNGQPENNYKTTPPVLDSDGSFFLYSKLTVDKSRWQQGNVFSCSVMHEALHNHYTQKSLSLSPG chain 2: EAVVTQEPSLTVSPGGTVTLTCRSSTGAVTTSNYANWVQEKPGQLPRGLIGGTNKRAPWVPARFSGSLLGGKAALTLSGAQPEDEAEYFCALWYSNLWVFGGGTKLTVLGQPKAAPSVTLFPPSSEELQANKATLVCLISDFYPGAVKVAWKADGSPVNTGVETTTPSKQSNNKYAASSYLSLTPEQWKSHRSYSCQVTHEGSTVEKTVAPAECSGGGGSEGKSSGSGSESKSTEGKSSGSGSESKSTGGGGSEVQLVESGGGLVQPGGSLKLSCAASGFTFNTYAMNWVRQAPGKGLEWVARIRSKYNNYATYYADSVKDRFTISRDDSKNTAYLQMNNLKTEDTAVYYCVRHGNFGNSYVSWFAYWGQGTLVTVSAASTKGPSVFPLAPSSKSTSGGTAALGCLVKDYFPEPVTVSWNSGALTSGVHTFPAVLQSSGLYSLSSVVTVPSSSLGTQTYICNVNHKPSNTKVDKRVEPKSCDKTHTCPPCPAPEAAGGPSVFLFPPKPKDTLMISRTPEVTCVVVDVSHEDPEVKFNWYVDGVEVHNAKTKPREEQYNSTYRVVSVLTVLHQDWLNGKEYKCKVSNKALPAPIEKTISKAKGQPREPQVYTLPPSREEMTKNQVSLSCAVKGFYPSDIAVEWESNGQPENNYKTTPPVLDSDGSFFLVSKLTVDKSRWQQGNVFSCSVMHEALHNRFTQKSLSLSPG	–	0.62	~0.05	no binding (tested: 10 µg/ml)	~0.4
